In one assay the target is T1, AT1R (Homo sapiens, UniProt P30556).
T1 construct: Rluc8; expressed in transfected cells; S391A-RAGE transiently transfected
T1 sequence (P30556 1-359): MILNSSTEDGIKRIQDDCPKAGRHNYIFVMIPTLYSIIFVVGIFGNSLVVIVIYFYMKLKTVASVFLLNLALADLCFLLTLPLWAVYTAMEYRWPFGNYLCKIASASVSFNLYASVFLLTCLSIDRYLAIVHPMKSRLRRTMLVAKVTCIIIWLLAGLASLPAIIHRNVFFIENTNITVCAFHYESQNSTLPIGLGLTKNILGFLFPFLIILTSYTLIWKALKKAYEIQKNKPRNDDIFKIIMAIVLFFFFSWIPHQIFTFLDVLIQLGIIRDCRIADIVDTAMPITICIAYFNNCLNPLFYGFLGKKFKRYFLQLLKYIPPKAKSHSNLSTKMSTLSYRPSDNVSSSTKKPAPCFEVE
Kind of assay: Functional competition: Ang II-induced p65/PCNA expression in AT1R-CHO cells transfected with full length mutant S391A-RAGE. Type of assay: cell-based. The following applies: for transactivation of the over-expressed cytosolic tail in the presence of S391A-RAGE1-404 (p65): Ang II 1 μM 2 h (FIG. 7A). As for the experimental part:
Adult retinal pigment epithelial (ARPE) cells were cultured in Dulbecco's modified Eagle's medium (DMEM)/F12 endothelial cell growth supplement (ECGS) supplemented media. Chinese Hamster Ovary (CHO) cells were cultured using F12 media (10% FCS with 2 mM glutamine). Human microvascular endothelial cells (HMEC) were cultured in MCDB 131 medium (10% FCS with 10 mM glutamine, EGF and hydrocortisone).
100 ng of AT1R-Rluc8 construct was transfected into CHO cells using Lipofectamine 2000 (Thermo). Stable transfectants were selected using G418. AT1R-CHO were then transiently transfected with the IgSF CAM and/or RAGE constructs using Lipofectamine 2000 (Invitrogen) and incubated for 16h.
After 2 hours of exposure to Ang II (1 μM) cells were placed in Trizol, mRNA extracted and cDNA synthesized. Changes in the gene expression of the NFκB subunit, p65 (RelA) or NFκB-activated target genes (e.g ICAM-1) were estimated by quantitative real-time RT-PCR, performed using the TaqMan system based on real-time detection of accumulated fluorescence (ABI Prism 7700, Perkin-Elmer Inc, PE Biosystems, Foster City, Calif., USA). Gene expression was normalized to 18S mRNA and reported as fold change compared to the level of expression in untreated control mice/cells, which were given an arbitrary value of 1.

In assay [1] the target is T2, Rluc8-labelled CADM4 (CADM4/Rluc8) (UniProt Q8NFZ8 21-388).
T2 construct: whole, on cells; not shown: Rluc8, a variant of Renilla luciferase
T2 sequence (looked up): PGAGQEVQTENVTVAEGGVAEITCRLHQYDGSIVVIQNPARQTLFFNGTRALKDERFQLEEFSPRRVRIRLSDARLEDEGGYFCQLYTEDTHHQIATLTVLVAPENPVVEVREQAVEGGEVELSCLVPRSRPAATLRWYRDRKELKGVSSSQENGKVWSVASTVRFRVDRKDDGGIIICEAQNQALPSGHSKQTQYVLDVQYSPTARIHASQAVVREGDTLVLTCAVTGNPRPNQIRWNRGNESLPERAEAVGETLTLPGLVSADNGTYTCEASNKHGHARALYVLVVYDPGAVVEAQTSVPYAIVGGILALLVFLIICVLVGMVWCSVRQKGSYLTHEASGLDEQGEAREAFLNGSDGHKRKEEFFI
The experiment in a line: BRET saturation assay (FIG. 12D). The method, then: (§1) The BRET ratio was calculated by subtracting the ratio of ‘acceptor emission’ over ‘donor emission’ for a cell sample expressing Rluc8-tagged protein alone from the same ratio for a cell sample expressing both Rluc8 and Venus-tagged proteins. Alternatively, the ligand-induced BRET signal was calculated by subtracting the ratio of ‘acceptor emission’ over ‘donor emission’ for a vehicle-treated cell sample from the same ratio for a second aliquot of the same cells treated with agonist.
(§2) For the BRET kinetic assays, the final pre-treatment reading is presented at the zero time point (time of ligand/vehicle addition). For the BRET saturation assays, fluorescence after light excitation was measured on an EnVision 2102 multi-label plate reader (PerkinElmer, Glen Waverley, Victoria, Australia) using a 485/14 excitation filter, 535/25 emission filter and D505 mirror. The fluorescence/luminescence ratio was generated by dividing the fluorescence values in arbitrary units (obtained with the EnVision) by the luminescence values also in arbitrary units (obtained as part of the BRET assay).
(In BRET a luciferase serves as donor, and the signal depends on an acceptor being close.)

Assay [2] has as its target T3, untagged RAGE (RAGE cDNA co-transfected) (UniProt Q15109 23-404).
T3 construct: whole, on cells
Kind of assay: BRET saturation assay, competition with EpCAM/Rluc8 (FIG. 11D). The method, then: as §1, §2

The target in the next assay is T4, RAGE/Rluc8 (UniProt Q15109 23-404).
T4 construct: whole, on cells; not shown: Rluc8, a variant of Renilla luciferase
Kind of assay: BRET saturation assay (FIGS. 13A, 13D). As for the experimental part: as §1, §2

Assay [3] concerns the target T5, Venus-labelled mouse ALCAM (ALCAM/Venus) (mouse, UniProt Q61490 28-583).
T5 construct: also called mouse ALCAM/Venus; not shown: Venus, a variant of green fluorescent protein
T5 sequence: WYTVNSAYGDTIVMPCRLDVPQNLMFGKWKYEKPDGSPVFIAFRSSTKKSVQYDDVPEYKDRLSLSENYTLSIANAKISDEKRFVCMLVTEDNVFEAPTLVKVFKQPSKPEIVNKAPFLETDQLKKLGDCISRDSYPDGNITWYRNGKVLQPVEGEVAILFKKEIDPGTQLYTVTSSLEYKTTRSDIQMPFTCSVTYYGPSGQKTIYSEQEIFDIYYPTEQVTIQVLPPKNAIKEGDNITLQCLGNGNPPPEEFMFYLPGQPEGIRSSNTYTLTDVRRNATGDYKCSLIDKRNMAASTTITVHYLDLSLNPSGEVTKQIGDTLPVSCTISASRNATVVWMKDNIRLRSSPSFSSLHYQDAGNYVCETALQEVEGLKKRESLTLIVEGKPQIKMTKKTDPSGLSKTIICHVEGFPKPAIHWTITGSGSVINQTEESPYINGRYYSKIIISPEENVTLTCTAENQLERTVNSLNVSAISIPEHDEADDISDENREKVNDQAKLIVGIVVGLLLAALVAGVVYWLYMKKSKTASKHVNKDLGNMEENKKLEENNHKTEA
Kind of assay: Receptor-HIT BRET: ALCAM/Venus + β-arrestin2/Rluc8 ± untagged AT1, after AngII. The method, then: as §1
(§3) GPCRs untagged with respect to the BRET system were then co-expressed in the HEK293FT cells, or the cells were transfected with pcDNA3 as a control. […] A ligand-induced BRET signal was indicative of recruitment of the BRET-tagged β-arrestin2 proximal to the BRET-tagged CAM, thereby indicating close proximity between the CAM and the activated GPCR.

Assay [4] has as its target T6, Venus-labelled CADM4 (CADM4/Venus) (UniProt Q8NFZ8 21-388).
T6 construct: whole, on cells; not shown: Venus, a variant of green fluorescent protein
T6 sequence (looked up): T2 sequence (looked up)
Kind of assay: Receptor-HIT BRET: CADM4/Venus + β-arrestin2/Rluc8 ± untagged AT1, after AngII. The method, then: as §1, §3

For the next assay, the target named is T7, human ALCAM/Rluc8 (human, UniProt Q13740 28-583).
T7 construct: also called ALCAM/Rluc8 (human ALCAM); not shown: Rluc8, a variant of Renilla luciferase
T7 sequence: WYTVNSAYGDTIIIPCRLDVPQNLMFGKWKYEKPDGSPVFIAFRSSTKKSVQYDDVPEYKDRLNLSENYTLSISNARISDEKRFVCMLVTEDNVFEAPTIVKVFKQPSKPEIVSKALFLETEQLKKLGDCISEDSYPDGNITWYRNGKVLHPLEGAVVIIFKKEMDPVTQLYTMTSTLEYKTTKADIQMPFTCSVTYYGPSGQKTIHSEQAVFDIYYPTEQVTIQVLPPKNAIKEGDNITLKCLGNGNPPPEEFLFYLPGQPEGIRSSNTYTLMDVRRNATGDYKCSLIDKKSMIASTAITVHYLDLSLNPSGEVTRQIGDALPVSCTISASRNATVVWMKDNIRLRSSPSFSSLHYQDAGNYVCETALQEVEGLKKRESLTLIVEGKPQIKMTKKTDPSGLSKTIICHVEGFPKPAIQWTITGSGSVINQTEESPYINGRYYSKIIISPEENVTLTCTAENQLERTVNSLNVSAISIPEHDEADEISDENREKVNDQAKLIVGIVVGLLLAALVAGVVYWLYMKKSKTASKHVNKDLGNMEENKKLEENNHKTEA
The experiment in a line: Receptor-HIT BRET: ALCAM/Rluc8 + β-arrestin2/Venus ± untagged AT1, after AngII. As for the experimental part: as §1, §3

In the next assay the target is T8, mouse ALCAM/Rluc8 (mouse, UniProt Q61490 28-583).
T8 construct: also called ALCAM/Rluc8 (mouse ALCAM); not shown: Rluc8, a variant of Renilla luciferase
T8 sequence: T5 sequence
The assay is described as above. The method, then:
as §1, §3

In assay [5] the target is T2, Rluc8-labelled CADM4 (CADM4/Rluc8). Kind of assay: Receptor-HIT BRET: CADM4/Rluc8 + β-arrestin2/Venus ± untagged AT1, after AngII. As for the experimental part:
as §1, §3

Consider five molecules from patent US20220169693A1, “Screening Assays, Modulators and Modulation of Intracellular Signalling Mediated by Immunoglobulin Superfamily Cell Adhesion Molecules” (Monash University, priority 2018, published 2022).

T4 sequence (Q15109 23-404): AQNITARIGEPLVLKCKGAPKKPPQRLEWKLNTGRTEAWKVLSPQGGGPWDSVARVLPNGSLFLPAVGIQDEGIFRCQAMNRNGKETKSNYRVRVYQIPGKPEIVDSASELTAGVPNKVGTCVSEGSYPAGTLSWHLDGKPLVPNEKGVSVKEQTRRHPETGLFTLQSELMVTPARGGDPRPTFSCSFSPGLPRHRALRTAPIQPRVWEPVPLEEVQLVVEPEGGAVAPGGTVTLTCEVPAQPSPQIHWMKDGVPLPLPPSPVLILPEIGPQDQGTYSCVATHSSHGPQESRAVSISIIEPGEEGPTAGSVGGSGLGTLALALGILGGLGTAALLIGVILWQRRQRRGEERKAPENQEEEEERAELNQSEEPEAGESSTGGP
T3 sequence (Q15109 23-404): as above

With “MKKSKTASKHVNKDLGNMEENKKLEENNHKTEA (Synthetic peptide - Truncated amino acid sequence of human ALCAM protein corresponding to residues 551 to 583 (corresponding to the cytosolic tail of ALCAM)) [ALCAM551-583]”, the “transactivation of the over-expressed cytosolic tail in the presence of S391A-RAGE1-404 (p65)” value in the assay with AT1R (AT1R-CHO cells) is listed as “able to overcome inhibition of transactivation”.

Consider “S391A-RAGE1-404: full length human mutant S391A-RAGE”, for which, in the assay with AT1R (AT1R-CHO cells, Ang II 1 μM 2 h, vs pCIneo (FIG. 7A)), the “ability of Ang II to induce p65-NFκB expression after transfection of the mutant” value is listed as “fails to confer the ability of Ang II to induce expression”. Also, in the assay with AT1R (Ang II 1 μM 2 h, vs pCIneo (FIG. 7B)), the “transactivation by AT1R as indicated by PCNA expression after transfection of the mutant” value is “unable to be transactivated”.

On to “MSVRQKGSYLTHEASGLDEQGEAREAFLNGSDGHKRKEEFFI [CADM4336-388]”, for which the “transactivation of the over-expressed cytosolic tail in the presence of S391A-RAGE1-404 (p65)” value with AT1R (AT1R-CHO cells) is listed as “able to overcome inhibition of transactivation”.

B1: Venus-tagged Angiotensin II receptor 1 (AT1/Venus) (receptor, UniProt P30556 1-359, looked up)
chain: T1 sequence (P30556 1-359)
notes: whole, on cells; not shown: Venus, a variant of green fluorescent protein
As for B1, the binding result (in [1]; in assay [2]; with RAGE/Rluc8) was “binds” each time.

B2: AT1 (untagged, co-expressed in HEK293FT cells) (receptor, UniProt P30556 1-359, looked up)
chain: T1 sequence (P30556 1-359)
notes: whole, on cells; Untagged with respect to BRET (Receptor-HIT assays); also called Angiotensin II receptor 1
B2: the binding result (in assay [3]; in [4]; with human ALCAM/Rluc8; with mouse ALCAM/Rluc8; in [5]) was “binds” in each case.
